These results are taken from paper PMC11711546 (2024).

First the molecules themselves.
B1: TSHZ3-HA wild-type (teashirt zinc finger homeobox 3) [human] / SOX9-Flag (SRY-box transcription factor 9) [not stated] (parent complex)
chain 1: MPRRKQQAPRRAAAYVSEELKAAALVDEGLDPEEHTADGEPSAKYMCPEKELARACPSYQNSPAAEFSCHEMDSESHISETSDRMADFESGSIKNEEETKEVTVPLEDTTVSDSLEQMKAVYNNFLSNSYWSNLNLNLHQPSSEKNNGSSSSSSSSSSSCGSGSFDWHQSAMAKTLQQVSQSRMLPEPSLFSTVQLYRQSSKLYGSIFTGASKFRCKDCSAAYDTLVELTVHMNETGHYRDDNHETDNNNPKRWSKPRKRSLLEMEGKEDAQKVLKCMYCGHSFESLQDLSVHMIKTKHYQKVPLKEPVTPVAAKIIPATRKKASLELELPSSPDSTGGTPKATISDTNDALQKNSNPYITPNNRYGHQNGASYAWHFEARKSQILKCMECGSSHDTLQELTAHMMVTGHFIKVTNSAMKKGKPIVETPVTPTITTLLDEKVQSVPLAATTFTSPSNTPASISPKLNVEVKKEVDKEKAVTDEKPKQKDKPGEEEEKCDISSKYHYLTENDLEESPKGGLDILKSLENTVTSAINKAQNGTPSWGGYPSIHAAYQLPNMMKLSLGSSGKSTPLKPMFGNSEIVSPTKNQTLVSPPSSQTSPMPKTNFHAMEELVKKVTEKVAKVEEKMKEPDGKLSPPKRATPSPCSSEVGEPIKMEASSDGGFRSQENSPSPPRDGCKDGSPLAEPVENGKELVKPLASSLSGSTAIITDHPPEQPFVNPLSALQSVMNIHLGKAAKPSLPALDPMSMLFKMSNSLAEKAAVATPPPLQSKKADHLDRYFYHVNNDQPIDLTKGKSDKGCSLGSVLLSPTSTAPATSSSTVTTAKTSAVVSFMSNSPLRENALSDISDMLKNLTESHTSKSSTPSSISEKSDIDGATLEEAEESTPAQKRKGRQSNWNPQHLLILQAQFAASLRQTSEGKYIMSDLSPQERMHISRFTGLSMTTISHWLANVKYQLRRTGGTKFLKNLDTGHPVFFCNDCASQIRTPSTYISHLESHLGFRLRDLSKLSTEQINSQIAQTKSPSEKMVTSSPEEDLGTSYQCKLCNRTFASKHAVKLHLSKTHGKSPEDHLLYVSELEKQ
chain 2: MNLLDPFMKMTDEQEKGLSGAPSPTMSEDSAGSPCPSGSGSDTENTRPQENTFPKGEPDLKKESEEDKFPVCIREAVSQVLKGYDWTLVPMPVRVNGSSKNKPHVKRPMNAFMVWAQAARRKLADQYPHLHNAELSKTLGKLWRLLNESEKRPFVEEAERLRVQHKKDHPDYKYQPRRRKSVKNGQAEAEEATEQTHISPNAIFKALQADSPHSSSGMSEVHSPGEHSGQSQGPPTPPTTPKTDVQPGKADLKREGRPLPEGGRQPPIDFRDVDIGELSSDVISNIETFDVNEFDQYLPPNGHPGVPATHGQVTYTGSYGISSTAATPASAGHVWMSKQQAPPPPPQQPPQAPPAPQAPPQPQAAPPQQPAAPPQQPQAHTLTTLSSEPGQSQRTHIKTEQLSPSHYSEQQQHSPQQIAYSPFNLPHYSPSYPPITRSQYDYTDHQNSSSYYSHAAGQGTGLYSTFTYMNPAQRPMYTPIADTSGVPSIPQTHSPQHWEQPVYTQLTRP
B2: TSHZ3-HA wild-type (teashirt zinc finger homeobox 3) [human] / MYOCD-Flag (myocardin) [not stated] (parent complex)
chain 1: B1 chain 1
chain 2: MTLLGSEHSLLIRSKFRSVLQLRLQQRRTQEQLANQGIIPPLKRPAEFHEQRKHLDSDKAKNSLKRKARNRCNSADLVNMHILQASTAERSIPTAQMKLKRARLADDLNEKIALRPGPLELVEKNILPVDSAVKEAIKGNQVSFSKSTDAFAFEEDSSSDGLSPDQTRSEDPQNSAGSPPDAKASDTPSTGSLGTNQDLASGSENDRNDSASQPSHQSDAGKQGLGPPSTPIAVHAAVKSKSLGDSKNRHKKPKDPKPKVKKLKYHQYIPPDQKAEKSPPPMDSAYARLLQQQQLFLQLQILSQQQQQQQHRFSYLGMHQAQLKEPNEQMVRNPNSSSTPLSNTPLSPVKNSFSGQTGVSSFKPGPLPPNLDDLKVSELRQQLRIRGLPVSGTKTALMDRLRPFQDCSGNPVPNFGDITTVTFPVTPNTLPNYQSSSSTSALSNGFYHFGSTSSSPPISPASSDLSVAGSLPDTFNDASPSFGLHPSPVHVCTEESLMSSLNGGSVPSELDGLDSEKDKMLVEKQKVINELTWKLQQEQRQVEELRMQLQKQKRNNCSEKKPLPFLAASIKQEEAVSSCPFASQVPVKRQSSSSECHPPACEAAQLQPLGNAHCVESSDQTNVLSSTFLSPQCSPQHSPLGAVKSPQHISLPPSPNNPHFLPSSSGAQGEGHRVSSPISSQVCTAQMAGLHSSDKVGPKFSIPSPTFSKSSSAISEVTQPPSYEDAVKQQMTRSQQMDELLDVLIESGEMPADAREDHSCLQKVPKIPRSSRSPTAVLTKPSASFEQASSGSQIPFDPYATDSDEHLEVLLNSQSPLGKMSDVTLLKIGSEEPHFDGIMDGFSGKAAEDLFNAHEILPGPLSPMQTQFSPSSVDSNGLQLSFTESPWETMEWLDLTPPNSTPGFSALTTSSPSIFNIDFLDVTDLNLNSSMDLHLQQW

Variants of B1 are the subject of one assay. Nature of the assay: co-immunoprecipitation (anti-HA beads), Western blot densitometry; parent: 1; read off a plot. On the technique in general: In western blotting, separated proteins are transferred to a membrane and probed.
With chain 1 S58G, the response is ~0.46 SOX9-Flag / TSHZ3-HA in IP. On the same count and under the same terms, in the case of chain 1 P63L it was ~1.1 SOX9-Flag / TSHZ3-HA in IP; in that of chain 1 A65T, ~1.4 SOX9-Flag / TSHZ3-HA in IP.

Another assay covers variants of B2. The description is as above.
chain 1 A65T: the response was ~1.5 MYOCD-Flag / TSHZ3-HA in IP.

In the case of chain 1 S58G, the response was ~1.9 MYOCD-Flag / TSHZ3-HA in IP. The same measure, in the same setting: as for chain 1 P63L, the figure is ~1.6 MYOCD-Flag / TSHZ3-HA in IP.
